# Source: patent publication US7842469B2, “Bioluminescence resonance energy transfer (BRET) systems and methods of use thereof” (Stanford University, priority 2005, dated 2010)
# Substitutions are numbered along the chain they refer to. Names and notes keep the numbering of the source.
# B1: A54P/C124A: RLuc mutant A54P/C124A (protein)
# chain: MASKVYDPEQRKRMITGPQWWARCKQMNVLDSFINYYDSEKHAENAVIFLHGNPASSYLWRHVVPHIEPVARCIIPDLIGMGKSGKSGNGSYRLLDHYKYLTAWFELLNLPKKIIFVGHDWGAALAFHYSYEHQDKIKAIVHAESVVDVIESWDEWPDIEEDIALIKSEEGEKMVLENNFFVETMLPSKIMRKLEPEEFAAYLEPFKEKGEVRRPTLSWPREIPLVKGGKPDVVQIVRNYNAYLRASDDLPKMFIESDPGFFSNAIVEGAKKFPNTEFVKVKGLHFSQEDAPDEMGKYIKSFVERVLKNEQ
# B2: A55T/C124A: RLuc mutant A55T/C124A (protein)
# chain: B1 chain with P54A, A55T
# B3: C124A/F180A: RLuc mutant C124A/F180A (protein)
# chain: B1 chain with P54A, F180A
# B4: C124A/G229E: RLuc mutant C124A/G229E (protein)
# chain: B1 chain with P54A, G229E
# B5: C124A/F262L: RLuc mutant C124A/F262L (protein)
# chain: B1 chain with P54A, F262L
# B6: C124A/Q235A: RLuc mutant C124A/Q235A (protein)
# chain: B1 chain with P54A, Q235A
# B7: C124A/E195S/P196D: RLuc mutant C124A/E195S/P196D (protein)
# chain: B1 chain with P54A, E195S, P196D
# B8: C124A/M191L: RLuc mutant C124A/M191L (protein)
# chain: B1 chain with P54A, M191L
# B9: C124A/F199M: RLuc mutant C124A/F199M (protein)
# chain: B1 chain with P54A, F199M
# B10: C124A/M295I: RLuc mutant C124A/M295I (protein)
# chain: B1 chain with P54A, M295I
# B11: F116L/C124A: RLuc mutant F116L/C124A (protein)
# chain: B1 chain with P54A, F116L
# B12: C124A/L203R: RLuc mutant C124A/L203R (protein)
# chain: B1 chain with P54A, L203R
# B13: C124A/S257G: RLuc mutant C124A/S257G (protein)
# chain: B1 chain with P54A, S257G
# B14: C124A/K300A: RLuc mutant C124A/K300A (protein)
# chain: B1 chain with P54A, K300A
# Assays:
# [1] = Luciferase activity of purified RLuc mutants (light output integrated over 10 s, luminometer); format: biochemical; details: relative to native enzyme; for Activity (relative to RLuc) bc: benzyl-coelenterazine; for Activity (relative to RLuc) bdc: bisdeoxycoelenterazine; for Activity (relative to RLuc) cp: coelenterazine-cp; for Activity (relative to RLuc) n: coelenterazine-n; for Activity (relative to RLuc) native: native coelenterazine
# Description: Luminometer Calibration: Light measurements were made using a Turner 20/20 and later a Turner 20/20n luminometer (Turner Designs, Sunnyvale, Calif.). The luminometers were calibrated to absolute units (photons/s) using the luminol light standard performed in dimethyl sulfoxide (DMSO). No corrections were applied for the spectral sensitivity of the luminometer, as the spectral peak of luminol chemiluminescence in DMSO (486 nm) is close to the spectral peak of Renilla Luciferase bioluminescence (482 nm).
# Characterization of Renilla Luciferase Mutants: Luciferase activity was measured by adding 1 μl of sample (diluted as necessary in EB containing 1% HSA) to 100 μl room temperature 100 mM sodium phosphate buffer (pH 7), manually adding 1 μl of 0.5 μg/μl coelenterazine or analog, manually mixing, and reading for 10 s in a luminometer. The time between the addition of the luciferin and the start of measurement was approximately 4 s.
# [2] = Serum stability in mouse serum at 37° C.; format: in vitro ADME; details: mouse serum, 37° C., mono-exponential fit
# Protocol: (§1) Serum stability measurements were done by mixing 0.5 μl dilute Luciferase with either 20 μl mouse serum or 50 μl rat serum (Equitech-Bio, Kerrville, Tex.) placing the sample in a 37° C. incubator, and removing aliquots for activity testing. To calculate serum half-lives, mono-exponential decay curves were fit to the serum stability data using a Nelder/Mead Simplex non-linear least squares minimization algorithm provided by the Octave numerical programming language. Emission spectra at ambient temperature were measured using a Triax 320 (Horiba Jobin Yvon, Edison, N.J.), which incorporates an optical grating device with a liquid N2 cooled CCD detector.
# [3] = Serum stability in rat serum at 37° C.; format: in vitro ADME; details: mono-exponential fit
# Protocol: as §1
# [4] = Bioluminescence emission spectra; format: physicochemical; details: emission spectrum with native coelenterazine
# Protocol: as §1
# [5] = Quantum yield measurements; format: biochemical
# Protocol: For quantum yield measurements, separate 1 μl drops of protein (about 2 pm) and substrate (0.2 pm) were placed in a tube, 100 μl of 100 mM sodium phosphate buffer (pH 7) was injected by the luminometer to mix, and the total light output was integrated (generally 5-10 min). For coelenterazine-n, the protein amount was increased 10 fold and the acquisition time lengthened to insure the reaction approached completion.
Molecule,Activity (relative to RLuc) bc [1],Activity (relative to RLuc) bdc [1],Activity (relative to RLuc) cp [1],Activity (relative to RLuc) n [1],Activity (relative to RLuc) native [1],Serum τ1/2 (h) mouse [2] [h],Serum τ1/2 (h) rat [3] [h],Wavelength (nm) mean [4] [nm],Wavelength (nm) peak [4] [nm],Quantum Yield (%) bc ([5]; benzyl-coelenterazine) [%],Quantum Yield (%) bdc ([5]; bisdeoxycoelenterazine),Quantum Yield (%) cp ([5]; coelenterazine-cp) [%],Quantum Yield (%) n ([5]; coelenterazine-n) [%],Quantum Yield (%) native ([5]; native coelenterazine) [%]
B1,0.04,0.06,0.05,0.08,0.05,14,13,482,468,,,,,
B2,1.2,2.4,0.58,1.4,1.7,30,29,504,486,3.9 ± 0.1,(1.0 ± 0.9) × 10^−3%,4.5 ± 0.1,5.7 ± 0.1,5.7 ± 0.2
B3,0.01,0.01,0.03,0.01,0.02,1.6,1.6,504,488,,,,,
B4,0.01,0.01,0.03,0.03,0.02,1.9,1.8,490,473,,,,,
B5,0.03,0.03,0.01,0.06,0.03,5.8,6.4,495,478,,,,,
B6,1.1,1.2,1.1,1.0,1.2,3.3,3.6,489,473,,,,,
B7,0.10,0.15,0.12,0.10,0.12,1.0,0.7,498,482,,,,,
B8,0.99,1.2,0.97,1.0,1.1,6.5,5.1,496,480,,,,,
B9,0.44,0.46,0.53,0.49,0.58,6.7,6.0,495,480,,,,,
B10,0.83,0.86,0.57,0.72,1.0,5.0,4.9,497,480,,,,,
B11,1.0,1.8,1.3,0.88,1.3,11,9.4,502,486,,,,,
B12,0.55,0.43,0.52,0.41,0.55,2.7,2.2,501,484,,,,,
B13,0.95,3.0,1.3,1.1,1.1,1.3,1.4,493,477,,,,,
B14,1.0,1.3,1.1,1.0,1.1,3.5,3.9,497,481,,,,,
